Reference: article PMC10688271, “Molecular details of the CPSF73-CPSF100 C-terminal heterodimer and interaction with Symplekin”

T1: ec73-CTD12;ec100-CTD12 (Encephalitozoon …, UniProt Q8SUE4;M1JIZ1 452-567;525-639, |)
T1 sequence 1: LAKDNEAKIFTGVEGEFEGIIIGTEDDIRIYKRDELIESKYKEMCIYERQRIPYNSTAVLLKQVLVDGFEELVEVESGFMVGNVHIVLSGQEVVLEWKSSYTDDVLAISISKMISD
T1 sequence 2: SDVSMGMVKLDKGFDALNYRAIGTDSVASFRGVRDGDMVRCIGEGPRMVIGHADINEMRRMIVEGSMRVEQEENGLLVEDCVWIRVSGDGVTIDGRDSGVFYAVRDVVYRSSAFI


Biological target: T1, ec73-CTD12;ec100-CTD12
Assay: EMSA; 50 uM protein, 500 nM nucleic acid; NMR also negative (NMR ligands not specified); EMSA: 20 mM Tris pH 7.5, 150 mM potassium acetate, 1 mM EDTA, 10% glycerol; 30 min incubation; 10% Tris-glycine gel (running buffer 27 mM Tris, 192 mM glycine)
Conditions: protein: recombinant;recombinant, copies: 1;1
[1] = label: 3' Cy3 on forward strand, blunt

Binder | binding result (label: 3' Cy3, single strand) | binding result [1]
AGGGUCUCCAUUUUGAAGCAUGC (ssRNA) [ssRNA-Cy3] | no binding | 
AGGGTCTCCATTTTGAAGCATGC (ssDNA) [ssDNA-Cy3] | no binding | 
dsDNA-Cy3 (dsDNA) DNA 1: AGGGTCTCCATTTTGAAGCATGC DNA 2: GCATGCTTCAAAATGGAGACCCT |  | no binding
dsRNA-Cy3 (dsRNA) RNA 1: AGGGUCUCCAUUUUGAAGCAUGC RNA 2: GCAUGCUUCAAAAUGGAGACCCU |  | no binding
